Experimental data: patent EP4692126A1 (Sound Biopharmaceuticals Co. Ltd., dated 2026)

How the values were obtained:
[1] = biological target: T1, TPBG-His (UniProt Q13641 32-355, limits assumed); assay: SPR (Biacore), TPBG-His amine-coupled to CM5, antibody as analyte, 1:1 model
T1 construct: probably the human protein, the same as m24; also called TPBG-His antigen; TPBG-His protein; not shown: His tag
T1 sequence (looked up): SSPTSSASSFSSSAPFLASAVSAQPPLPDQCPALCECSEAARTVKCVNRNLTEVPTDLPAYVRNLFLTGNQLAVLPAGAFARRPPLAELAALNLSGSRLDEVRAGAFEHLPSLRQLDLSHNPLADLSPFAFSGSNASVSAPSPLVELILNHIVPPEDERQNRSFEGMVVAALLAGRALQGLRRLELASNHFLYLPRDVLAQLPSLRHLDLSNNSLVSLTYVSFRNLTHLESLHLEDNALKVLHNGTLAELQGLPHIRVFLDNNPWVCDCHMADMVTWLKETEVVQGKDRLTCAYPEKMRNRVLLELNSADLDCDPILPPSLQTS

[2] = biological target: T1, TPBG-His; assay: SPR (Biacore 8K), antibody captured on anti-human antibody CM5 chip, TPBG-His 300 nM, 1:1 model
[3] = biological target: T2, mouse 5T4 antigen (TPBG-His, mouse) (mouse, UniProt Q9Z0L0 32-361, limits assumed); assay: ELISA, TPBG-His coated at 1 ug/ml
T2 construct: One of the '3 different species of TPBG-His' coated in the cross reactivity ELISA; also called mouse TPBG-His; not shown: His tag
T2 sequence (looked up): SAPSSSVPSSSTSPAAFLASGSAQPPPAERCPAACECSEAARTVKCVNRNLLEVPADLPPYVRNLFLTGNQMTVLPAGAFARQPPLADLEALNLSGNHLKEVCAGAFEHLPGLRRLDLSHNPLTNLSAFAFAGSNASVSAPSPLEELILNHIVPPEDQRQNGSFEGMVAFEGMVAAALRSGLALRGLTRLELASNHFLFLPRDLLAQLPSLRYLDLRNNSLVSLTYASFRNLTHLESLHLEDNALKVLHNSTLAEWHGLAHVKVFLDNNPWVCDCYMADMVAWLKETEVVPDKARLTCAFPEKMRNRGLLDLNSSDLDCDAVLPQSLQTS

[4] = biological target: T1, TPBG-His; assay: ELISA, TPBG-His coated at 1 ug/ml, anti-human IgG Fc HRP detection
[5] = biological target: T3, 5T4 EDC-Fc (UniProt Q13641 32-355); assay: SPR (Biacore), 5T4 EDC-Fc amine-coupled to CM5, antibody as analyte, 1:2 model
T3 construct: domain: EDC; Printed with molecular weight 65-120 kD; not shown: Fc part
T3 sequence (looked up): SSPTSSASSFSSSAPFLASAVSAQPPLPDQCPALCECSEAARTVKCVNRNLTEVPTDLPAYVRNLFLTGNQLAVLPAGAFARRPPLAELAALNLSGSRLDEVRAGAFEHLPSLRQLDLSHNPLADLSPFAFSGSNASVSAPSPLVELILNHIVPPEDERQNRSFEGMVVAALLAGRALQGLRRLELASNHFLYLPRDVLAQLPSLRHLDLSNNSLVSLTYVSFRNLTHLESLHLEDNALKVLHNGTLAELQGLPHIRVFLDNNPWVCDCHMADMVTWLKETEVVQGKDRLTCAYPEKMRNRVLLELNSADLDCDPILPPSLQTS

B1: hB5-2-10 (antibody, human IgG1, kappa)
heavy: not shown
light: DIQMTQSPSSLSASVGDRVTISCRASQDISNYLNWYQQKPGKVPKLLIYHTSILHSGVPSRFSGSGSGTDYSLTISSLQPEDVATYFCQQGDTVPLTFGGGTKVEIKRTVAAPSVFIFPPSDEQLKSGTASVVCLLNNFYPREAKVQWKVDNALQSGNSQESVTEQDSKDSTYSLSSTLTLSKADYEKHKVYACEVTHQGLSSPVTKSFNRGEC
notes: Humanized IgG1 kappa; also called humanized antibody hB5-2-10
In the case of B1, the Kd [1] is reported as 2.92 nM, the koff [1] is reported as 0.000627 s⁻¹ and the kon [1] is reported as 215000 M⁻¹ s⁻¹. The Kd [2] was 2.31 nM, the koff [2] was 0.000487 s⁻¹ and the kon [2] was 211000 M⁻¹ s⁻¹. The binding result [3] was “no binding (tested: highest concentration tested 20000 ng/ml)” and the EC50 [4] was 2.8 ng/mL.

B2: antibody B5 (antibody, V domains shown)
VH: EVQLVESGGGLVKPGGSLKLSCAASGFTFRNYAMSWVRQSPDKRLEWVAEISTGGSYTYYPDTVTGRFTISRDNAKNTLYLEMSSLRSEDTAMYYCAFYYYGSSYSMDYWGQGTSVTVSS
VL: DIQMTQTTSSLSASLGDRVTISCRASQDISNYLNWYQQKPDGTVKLLIYHTSILHSGVPSRFSGSGSGTDYSLTISNLEQEDIATYFCQQGDTVPLTFGAGTKLELK
notes: Monoclonal antibody from hybridoma of immunized BALB/c mice
In the case of B2, the Kd [5] is reported as 0.018 nM, the koff [5] is reported as 1.45e-05 s⁻¹ and the kon [5] is reported as 803000 M⁻¹ s⁻¹.
